Results on one substance are retold here after patent publication US9926369B2, “Methods for treating hepatocellular cancer by administering an anti-Ang-2 antibody” (Regeneron Pharmaceuticals, Inc., priority 2009, dated 2018).

Test [1] deals with T1, Human Ang-2FD-hFc binding to hTie-2-mFc (Homo sapiens, UniProt O15123).
T1 sequence (O15123 282-496): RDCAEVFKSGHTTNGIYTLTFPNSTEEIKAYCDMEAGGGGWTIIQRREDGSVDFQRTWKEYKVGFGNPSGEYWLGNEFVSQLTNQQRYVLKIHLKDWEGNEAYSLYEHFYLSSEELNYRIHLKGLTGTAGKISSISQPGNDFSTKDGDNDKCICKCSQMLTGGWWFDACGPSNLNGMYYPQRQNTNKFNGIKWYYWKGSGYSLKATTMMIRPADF
The test can be described thus: ELISA blocking of human Ang-2FD-hFc binding to hTie-2-mFc. It is filed as biochemical. To be noted: 16.67 nM antibody; 2 nM Ang-2FD-hFc. On the procedure: Tie-2 is a natural receptor for Ang-2. Anti-Ang-2 antibodies were tested for their ability to block Ang-2 binding to human Tie-2 (hTie-2). hTie-2-mFc (a chimeric construct consisting of human Tie-2 conjugated to mouse IgG; SEQ ID NO:525) was coated onto 96-well plates at a concentration of 2 μg/ml and incubated overnight followed by washing four times in wash buffer (PBS with 0.05% Tween-20). The plate was then blocked with PBS (Irvine Scientific, Santa Ana, Calif.) containing 0.5% BSA (Sigma-Aldrich Corp., St. Louis, Mo.) for one hour at room temperature. In a separate plate, purified anti-Ang-2 antibodies, at a starting concentration of 50 nM, were serially diluted by a factor of three across the plate. Human, mouse or monkey Ang-2FD protein conjugated to human IgG (Ang-2FD-hFc) were added to final concentrations of 2 nM, 8 nM, or 2 nM respectively and incubated for one hour at room temperature. The antibody/Ang-2FD-Fc mixture was then added to the plate containing hTie-2-mFc and incubated for one hour at room temperature. Detection of Ang-2FD-hFc bound to hTie-2-mFc protein was determined with Horse-Radish Peroxidase (HRP) conjugated to a-human IgG antibody (Jackson Immuno Research Lab, West Grove, Pa.) and developed by standard colorimetric response using tetramethylbenzidine (TMB) substrate (BD Biosciences, San Jose, Calif.). Absorbance was read at OD450 for 0.1 sec.

The target in test [2] is T2, hAng-2-WT (Homo sapiens, UniProt O15123).
T2 construct: wild-type human Ang-2 (hAng-2-WT)
T2 sequence (O15123 19-496): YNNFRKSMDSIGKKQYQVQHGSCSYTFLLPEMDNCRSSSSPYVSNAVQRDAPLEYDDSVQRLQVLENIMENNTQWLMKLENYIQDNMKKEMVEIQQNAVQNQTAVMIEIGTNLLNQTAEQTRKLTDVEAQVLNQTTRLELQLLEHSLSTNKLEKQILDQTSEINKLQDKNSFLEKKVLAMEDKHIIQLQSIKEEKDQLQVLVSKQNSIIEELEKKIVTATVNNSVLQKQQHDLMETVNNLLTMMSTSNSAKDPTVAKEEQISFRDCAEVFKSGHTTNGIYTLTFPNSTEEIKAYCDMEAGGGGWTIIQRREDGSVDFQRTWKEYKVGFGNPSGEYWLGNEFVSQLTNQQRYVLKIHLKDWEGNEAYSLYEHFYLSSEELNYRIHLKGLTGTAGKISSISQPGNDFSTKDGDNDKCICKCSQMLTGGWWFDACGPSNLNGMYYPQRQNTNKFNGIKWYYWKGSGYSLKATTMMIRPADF
The test can be described thus: SPR binding to wild-type human Ang-2 (Table 8). On the procedure:
Equilibrium dissociation constants (KD values) for the binding of selected purified Ang-2 antibodies to dimeric fibrinogen-like domain of human (SEQ ID NO: 519), mouse (Mus musculus; SEQ ID NO: 520) and monkey (Macca fascicularis; SEQ ID NO: 521) Ang-2 (Ang-2FD) conjugated to human IgG1 (SEQ ID NO:528) were determined by surface kinetics using a real-time biosensor surface plasmon resonance assay. Antibody was captured on a goat anti-mouse IgG polyclonal antibody surface, a goat anti-human κ polyclonal antibody (Southern Biotech, Birmingham, Ala.) surface or a goat anti-human IgG polyclonal antibody (Jackson Immuno Research Lab, West Grove, Pa.) surface created through direct amine coupling to a BIACORE™ CM5 sensor chip to form a captured antibody surface. Varying concentrations (ranging from 50 nM to 6.25 nM) of protein were injected at 100 μl/min over captured antibody surface for 90 seconds. Antigen-antibody binding and dissociation were monitored in real time at room temperature. Kinetic analysis was performed to calculate KD and half-life of antigen/antibody complex dissociation.
In yet another experiment, KD values for selected purified antibodies that bind to wild-type human Ang-2 (hAng-2-WT; SEQ ID NO: 518) and the fibrinogen-like domain of human Ang2 (hAng-2FD) were determined (as described above).

For the substance “H1H685P: human anti-Ang-2 antibody, HCVR/LCVR SEQ ID NOs 18/20; also referred to as mAb1 [Antibody H1H685P]”, the “Percent Blocking of Ang-2FD Binding to Tie-2, Human Ang-2FD-hFc” value in test [1] is 93.8%. Binding in test [2] was put at a Kd of 47.6 pM.

For orientation: Kd means the concentration at which binding is half-saturated. Low values mean a tighter complex, high ones a looser complex.
